Measured values as given in publication PMC8505757 (Journal of Molecular Biology, 2021).
Non-standard residues stand in square brackets, D forms with d. pS = N[C@@H](COP(=O)(O)O)C(=O)O

Target: T1, 14-3-3σΔC (human, UniProt P31947 1-231)
T1 sequence (looked up): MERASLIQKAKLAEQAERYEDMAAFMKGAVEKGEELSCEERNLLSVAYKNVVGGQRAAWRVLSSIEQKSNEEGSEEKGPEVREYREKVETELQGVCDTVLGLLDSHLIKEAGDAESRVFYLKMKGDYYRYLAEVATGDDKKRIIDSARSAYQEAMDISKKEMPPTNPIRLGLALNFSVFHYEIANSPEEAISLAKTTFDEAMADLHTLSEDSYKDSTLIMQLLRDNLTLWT
Experiment: crystal structure

B1: Ataxin-1 pS776 peptide (AcNH-RKRRWpSAPESR-NH2) (peptide)
peptide: Ac-RKRRW[pS]APESR-NH2
SMILES: CC(=O)N[C@@H](CCCNC(=N)N)C(=O)N[C@@H](CCCCN)C(=O)N[C@@H](CCCNC(=N)N)C(=O)N[C@@H](CCCNC(=N)N)C(=O)N[C@@H](Cc1c[nH]c2ccccc12)C(=O)N[C@@H](COP(=O)(O)O)C(=O)N[C@@H](C)C(=O)N1CCC[C@H]1C(=O)N[C@@H](CCC(=O)O)C(=O)N[C@@H](CO)C(=O)N[C@@H](CCCNC(=N)N)C(N)=O
B1: binds.
